According to patent US5840530:

Tests used:
[1] = target: recombinant human IL-12 beta2 receptor protein expressed from the B5-10 plasmid on COS cells (human); experiment: equilibrium binding of 125I-labeled IL-12 to transfected COS cells, Scatchard analysis, single site model
[2] = target: recombinant human IL-12 beta1 receptor protein (human); experiment: as above

Kd [1]: 2 to 5 nM | Kd [2]: 2 to 5 nM
Substance: recombinant human IL-12 (Interleukin-12) (from UniProt P29460) (ligand)
